# From PMC2932737, “DNA Clasping by Mtb HU”
# B1: A6 84% GC DNA (SH_10+SH_11) (dsDNA)
# DNA 1: GCCCGGCTGCACCGCGCCACCGCGG
# DNA 2: CCGCGGTGGCGCGGTGCAGCCGGGC
# B2: A7 64% AT DNA (SH_12+SH_13) (dsDNA)
# DNA 1: TCAAATCTAATCGGAGTCGTTTTGA
# DNA 2: TCAAAACGACTCCGATTAGATTTGA
# B3: A2 nick DNA (SH_1+SH_3+SH_4) (structured_DNA)
# DNA 1: CTCTGTGACTGGTGTGACCTGGGAGAGAGAAGTTTTTTTAAGAACGTT
# DNA 2: TCCCAGGTCACACCAGTCACAGAG
# DNA 3: AACGTTCTTAAAAAAACTTCTCTC
# B4: A3 1-nt gap DNA (SH_1+SH_3+SH_5) (structured_DNA)
# DNA 1: B3 DNA 1
# DNA 2: TCCCAGGTCACACCAGTCACAGAG
# DNA 3: AACGTTCTTAAAAAAACTTCTCT
# B5: A4 2-nt gap DNA (SH_1+SH_3+SH_6) (structured_DNA)
# DNA 1: B3 DNA 1
# DNA 2: TCCCAGGTCACACCAGTCACAGAG
# DNA 3: AACGTTCTTAAAAAAACTTCTC
# Columns and labels:
# [1] = molecular target: HupBMtb (HU, MDP-1, HLPMt) (Mycobacterium tuberculosis H37Rv) (UniProt P9WMK7); test: agarose EMSA; settings: scale: fold higher affinity than for linear pBSK
# [2] = molecular target: HupBMtb (HU, MDP-1, HLPMt) (Mycobacterium tuberculosis H37Rv) (UniProt P9WMK7); test: EMSA
# [3] = molecular target: T1, HupBMtb (HU, MDP-1, HLPMt) (Mycobacterium tuberculosis H37Rv, UniProt P9WMK7 3-216); test: EMSA; 0-300 nM protein; negligible; settings: protein: recombinant; tags: His (pET28a, NdeI/HindIII); chain copies: 2; label: 5' 32P; blunt
# HupBMtbN [4] = molecular target: T2, HupBMtbN (Mycobacterium tuberculosis H37Rv, UniProt P9WMK7 3-97); test: EMSA; 0-300 nM protein; single complex; settings: protein: recombinant; tags: His (pET28a, NdeI/HindIII); chain copies: 2; label: 5' 32P; blunt
# [5] = molecular target: T1, HupBMtb (HU, MDP-1, HLPMt); test: EMSA; 0-300 nM protein; two complexes; settings: protein: recombinant; tags: His (pET28a, NdeI/HindIII); chain copies: 2; label: 5' 32P; blunt
# [6] = molecular target: T1, HupBMtb (HU, MDP-1, HLPMt); test: EMSA; 200 mM KCl; settings: protein: recombinant, tags: His (pET28a, NdeI/HindIII), chain copies: 2, label: 5' 32P, blunt
# HupBMtbN [7] = molecular target: T2, HupBMtbN; test: EMSA; 10 mM KCl; settings: protein: recombinant, tags: His (pET28a, NdeI/HindIII), chain copies: 2, label: 5' 32P, blunt
# [8] = molecular target: T1, HupBMtb (HU, MDP-1, HLPMt); test: EMSA; 10 mM KCl; settings: protein: recombinant, tags: His (pET28a, NdeI/HindIII), chain copies: 2, label: 5' 32P, blunt
# [9] = 48 bp duplex with nick in the lower strand
# [10] = duplex with 1 nt gap in the lower strand
# [11] = duplex with 2 nt gap in the lower strand
# T2 sequence (P9WMK7 3-97): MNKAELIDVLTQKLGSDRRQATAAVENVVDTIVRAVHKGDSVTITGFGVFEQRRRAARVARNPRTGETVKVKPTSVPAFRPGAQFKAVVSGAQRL
# T1 sequence (P9WMK7 3-216): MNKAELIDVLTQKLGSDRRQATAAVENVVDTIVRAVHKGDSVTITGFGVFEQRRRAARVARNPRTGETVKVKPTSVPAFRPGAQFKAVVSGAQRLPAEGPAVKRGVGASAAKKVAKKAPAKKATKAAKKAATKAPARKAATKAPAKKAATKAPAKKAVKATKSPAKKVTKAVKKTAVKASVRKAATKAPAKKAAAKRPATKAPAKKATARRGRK
# Chain of HupBMtb (HU, MDP-1, HLPMt) (Mycobacterium tuberculosis H37Rv) (P9WMK7 3-216): as above
molecule,measurement,setting,value
pBluescript SK supercoiled,binding signal,[1],1.5
CTCTGTGACTGGTGTGACCTGGGAGAGAGAAGTTTTTTTAAGAACGTT (double strand) [A1 ds DNA (SH_1+SH_2)],Kd,[2],42 nM
B1,binding result,[3],no binding
B2,binding result,HupBMtbN [4],binds
same,binding result,[5],binds
B3,Kd,[6]; [9],65 nM
same,Kd,HupBMtbN [7]; [9],1000 nM
B4,Kd,[8]; [10],55 nM
same,Kd,HupBMtbN [7]; [10],725 nM
B5,Kd,[6]; [11],88 nM
same,Kd,[8]; [11],60 nM
same,Kd,HupBMtbN [7]; [11],536 nM
